Data: patent publication US20220306695A1, “COMPSTATIN ANALOGUES AND THEIR MEDICAL USES” (priority 2019, published 2022)
Like-named read-outs stand apart in the source and are kept apart here. Starred links: 1 amine or outer side, 2 acyl side, 3 side chain; linkers in the order of their positions; H or OH if unused. Positions of bridges follow the written chain, without caps; N, C: chain ends. Non-standard residues stand in square brackets, D forms with d. Residues, ends and D or L forms follow the SMILES beside them. Groups on a side chain read outwards from the residue. *: point of attachment. Trp(1-Me) = Cn1cc(C[C@H](N)C(=O)O)c2ccccc21; Abu(4-yl) = O=C([C@H](CC[*:3])N[*:1])[*:2]; C18 diacid = O=C(O)CCCCCCCCCCCCCCCCC(=O)*; γGlu = O=C(O)[C@H](CCC(=O)[*:2])N[*:1]; AEEA = NCCOCCOCC(=O)O

Tests used:
[1] = system: classical complement pathway; assay: In vitro haemolysis assay (inhibition of classical complement pathway); type: cell-based, human; settings: Table 3; human serum, sensitized sheep red blood cells; read-out: IC50[nM], in vitro analysis of inhibition of hemolysis
How it was run: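 Serially diluted compound (9 points) was preincubated 15 min at room temperature with diluted human serum, titrated per batch to give 70-90% maximal haemolysis, in Tris/casein buffer pH 7.4 with Mg2+/Ca2+. Antibody-sensitized sheep erythrocytes were then added for 30 min at 37° C, and the reaction was stopped with EDTA. Haemolysis was read at A405, with IC50 from 4PL fit.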

in vivo = assay: in vivo; parameters: species or system Cynomolgus monkeys (Macaca fascicularis); settings: male, cynomolgus monkey, sc, 1840 nmol/kg, t½
How it was run: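 Healthy male cynomolgus monkeys dosed once subcutaneously at 1840 nmol/kg in 20 mM phosphate pH 7.5 with mannitol. Serum sampled pre-dose to 120 h and total drug measured by SPE and LC-MS/MS. Terminal half-life calculated non-compartmentally as ln(2)/λz from the terminal log-linear phase.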

Human C3 [2] = biological target: T1, Human C3 (Homo sapiens, UniProt P01024); assay: Affinity measurement by surface plasmon resonance (SPR) with immobilized C3; type: binding; settings: Table 7; immobilized C3, 25° C., pH 7.4
T1 construct: purchased Complement tech A1 13c (so in the source)

[3] = type: physicochemical; settings: 50 mg/mL peptide
How it was run: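 Compstatin analogues with cystathionine or disulfide bridge held at 50 mg/mL in 20 mM phosphate pH 5.5, 6.5 or 7.5 and stored 14 days at 40 °C. At 0, 7 and 14 days, samples diluted to 2 mg/mL; purity by reverse-phase HPLC (220 nm) and covalent oligomer content by denaturing SEC (215 nm), from integrated chromatograms.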

Human C3 [4] = biological target: T2, Human C3 (human, UniProt P01024 23-1663); assay: cell-based or functional assay
T2 sequence (P01024 23-1663 limits assumed): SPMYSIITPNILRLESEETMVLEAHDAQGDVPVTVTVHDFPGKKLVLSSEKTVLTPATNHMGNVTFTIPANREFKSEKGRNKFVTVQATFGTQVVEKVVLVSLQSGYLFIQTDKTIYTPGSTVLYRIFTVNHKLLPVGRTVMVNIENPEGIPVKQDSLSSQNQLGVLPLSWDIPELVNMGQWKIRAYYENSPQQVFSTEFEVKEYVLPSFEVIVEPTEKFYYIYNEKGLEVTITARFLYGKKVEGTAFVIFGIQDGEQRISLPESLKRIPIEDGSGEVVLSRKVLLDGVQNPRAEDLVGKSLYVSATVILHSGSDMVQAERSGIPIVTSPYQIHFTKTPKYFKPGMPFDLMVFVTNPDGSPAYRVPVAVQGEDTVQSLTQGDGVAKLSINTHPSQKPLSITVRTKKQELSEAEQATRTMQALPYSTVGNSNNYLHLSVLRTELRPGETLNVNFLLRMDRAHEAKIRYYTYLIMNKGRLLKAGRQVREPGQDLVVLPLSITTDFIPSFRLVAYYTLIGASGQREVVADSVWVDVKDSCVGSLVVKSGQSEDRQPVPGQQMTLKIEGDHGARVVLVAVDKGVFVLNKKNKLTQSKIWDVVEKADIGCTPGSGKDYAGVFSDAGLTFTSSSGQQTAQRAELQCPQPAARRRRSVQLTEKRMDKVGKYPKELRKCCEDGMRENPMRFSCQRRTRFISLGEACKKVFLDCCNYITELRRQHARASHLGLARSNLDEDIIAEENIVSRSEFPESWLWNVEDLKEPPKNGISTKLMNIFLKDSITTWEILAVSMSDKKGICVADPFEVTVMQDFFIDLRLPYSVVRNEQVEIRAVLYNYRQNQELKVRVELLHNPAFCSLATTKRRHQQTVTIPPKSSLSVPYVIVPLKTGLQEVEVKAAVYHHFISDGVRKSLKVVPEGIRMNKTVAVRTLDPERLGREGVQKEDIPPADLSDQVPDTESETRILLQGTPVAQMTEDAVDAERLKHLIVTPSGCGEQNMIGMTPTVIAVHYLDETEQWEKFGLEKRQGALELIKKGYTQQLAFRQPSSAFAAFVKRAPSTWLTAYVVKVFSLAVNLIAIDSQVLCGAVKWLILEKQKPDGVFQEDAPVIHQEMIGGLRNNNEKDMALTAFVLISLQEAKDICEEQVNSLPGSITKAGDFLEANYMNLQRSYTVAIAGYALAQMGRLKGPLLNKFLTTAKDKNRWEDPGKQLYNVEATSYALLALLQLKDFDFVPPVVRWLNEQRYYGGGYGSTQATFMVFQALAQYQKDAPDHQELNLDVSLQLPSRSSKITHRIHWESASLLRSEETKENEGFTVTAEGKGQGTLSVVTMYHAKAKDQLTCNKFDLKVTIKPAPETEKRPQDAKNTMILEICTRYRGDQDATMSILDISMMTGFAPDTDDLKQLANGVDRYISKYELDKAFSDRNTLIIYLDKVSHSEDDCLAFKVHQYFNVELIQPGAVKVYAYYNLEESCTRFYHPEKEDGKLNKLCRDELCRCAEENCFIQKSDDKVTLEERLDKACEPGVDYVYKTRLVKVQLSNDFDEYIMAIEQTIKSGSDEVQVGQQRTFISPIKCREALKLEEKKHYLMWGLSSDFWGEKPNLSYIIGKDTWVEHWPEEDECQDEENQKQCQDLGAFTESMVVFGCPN

Human C3 [5] = biological target: T2, Human C3; assay: cell-based or functional assay; remark: listed apart in the source

| Molecule | CP hemolysis IC50 (Human C3 [4]) [nM] | IC50[nM], inhibition of hemolysis (Human C3 [5]) [nM] | also measured |
| --- | --- | --- | --- |
| CC[C@H](C)[C@@H]1NC(=O)[C@@H](NC(=O)[C@H](Cc2ccccc2)NC(=O)[C@H](CCC(=O)O)NC(=O)[C@H](CO)NC(C)=O)CSCC[C@@H](C(=O)N[C@H](C(=O)N[C@@H](CCC(=O)O)C(=O)NCC(=O)N[C@@H](CCC(=O)O)C(=O)NCCOCCOCC(=O)N[C@@H](CCC(=O)O)C(=O)N[C@@H](CO)C(=O)N[C@@H](CCCCNC(=O)CC[C@H](NC(=O)CCCCCCCCCCCCCCCCC(=O)O)C(=O)O)C(N)=O)[C@@H](C)O)NC(=O)[C@H](CCCNC(=N)N)NC(=O)[C@H](Cc2c[nH]cn2)NC(=O)[C@H](CCC(=O)O)NC(=O)CNC(=O)[C@H](Cc2c[nH]c3ccccc23)NC(=O)[C@H](CC(=O)O)NC(=O)[C@H](CCC(N)=O)NC(=O)[C@H](Cc2cn(C)c3ccccc23)NC1=O [Compound 148, Ac-SEFA(1)I[1-Me-Trp]QDWGEHRhC(1)TEGE[Peg3]ES-K([17-carboxy-heptadecanoyl][γGlu])-NH2] (Ac-SEFCI[Trp(1-Me)]QDWGEHR[Abu(4-yl)]TEGE[AEEA]ESK([γGlu-C18 diacid])-NH2; thioether 4-14) |  |  | IC50 [1]: < 100 nM; half-life (in vivo): 129 h; Kd (Human C3 [2]): 3.4 nM; Covalent oligomer content after 14 days 40° C. (%), F1 ([3]; F1: 20 mM phosphate pH 5.5, denaturing SEC): 0.7%; Purity after 14 days 40° C. (%), F1 ([3]; F1: 20 mM phosphate pH 5.5, normalized purity (HPLC)): 93%; Covalent oligomer content after 14 days 40° C. (%), F2 ([3]; F2: 20 mM phosphate pH 6.5, denaturing SEC): 0.0%; Purity after 14 days 40° C. (%), F2 ([3]; F2: 20 mM phosphate pH 6.5, normalized purity (HPLC)): 97%; Covalent oligomer content after 14 days 40° C. (%), F2 ([3]; F3: 20 mM phosphate pH 7.5, denaturing SEC): 0.1%; Purity after 14 days 40° C. (%), F3 ([3]; F3: 20 mM phosphate pH 7.5, normalized purity (HPLC)): 97% |
| Ac-ESSAICVWQDWGEHRCT-NH2 (disulfide 6-16; SMILES CC[C@H](C)[C@H](NC(=O)[C@H](C)NC(=O)[C@H](CO)NC(=O)[C@H](CO)NC(=O)[C@H](CCC(=O)O)NC(C)=O)C(=O)N[C@H]1CSSC[C@@H](C(=O)N[C@H](C(N)=O)[C@@H](C)O)NC(=O)[C@H](CCCNC(=N)N)NC(=O)[C@H](Cc2c[nH]cn2)NC(=O)[C@H](CCC(=O)O)NC(=O)CNC(=O)[C@H](Cc2c[nH]c3ccccc23)NC(=O)[C@H](CC(=O)O)NC(=O)[C@H](CCC(N)=O)NC(=O)[C@H](Cc2c[nH]c3ccccc23)NC(=O)[C@H](C(C)C)NC1=O) [Compound C] | 300 |  |  |
| Ac-ICVWQDWGAHSCT-NH2 (disulfide 2-12; SMILES CC[C@H](C)[C@H](NC(C)=O)C(=O)N[C@H]1CSSC[C@@H](C(=O)N[C@H](C(N)=O)[C@@H](C)O)NC(=O)[C@H](CO)NC(=O)[C@H](Cc2c[nH]cn2)NC(=O)[C@H](C)NC(=O)CNC(=O)[C@H](Cc2c[nH]c3ccccc23)NC(=O)[C@H](CC(=O)O)NC(=O)[C@H](CCC(N)=O)NC(=O)[C@H](Cc2c[nH]c3ccccc23)NC(=O)[C@H](C(C)C)NC1=O) [Compound E] | > 1000 |  |  |
| Ac-ICVWQDWGEHSCT-NH2 (disulfide 2-12; SMILES CC[C@H](C)[C@H](NC(C)=O)C(=O)N[C@H]1CSSC[C@@H](C(=O)N[C@H](C(N)=O)[C@@H](C)O)NC(=O)[C@H](CO)NC(=O)[C@H](Cc2c[nH]cn2)NC(=O)[C@H](CCC(=O)O)NC(=O)CNC(=O)[C@H](Cc2c[nH]c3ccccc23)NC(=O)[C@H](CC(=O)O)NC(=O)[C@H](CCC(N)=O)NC(=O)[C@H](Cc2c[nH]c3ccccc23)NC(=O)[C@H](C(C)C)NC1=O) [Compound F] | 540 |  |  |
| Ac-ICIWQDWGEHRCS-NH2 (disulfide 2-12; SMILES CC[C@H](C)[C@H](NC(C)=O)C(=O)N[C@H]1CSSC[C@@H](C(=O)N[C@@H](CO)C(N)=O)NC(=O)[C@H](CCCNC(=N)N)NC(=O)[C@H](Cc2c[nH]cn2)NC(=O)[C@H](CCC(=O)O)NC(=O)CNC(=O)[C@H](Cc2c[nH]c3ccccc23)NC(=O)[C@H](CC(=O)O)NC(=O)[C@H](CCC(N)=O)NC(=O)[C@H](Cc2c[nH]c3ccccc23)NC(=O)[C@H]([C@@H](C)CC)NC1=O) [Compound 21] | 77 | < 100 |  |
| Ac-ICIWQDWGSHRCT-NH2 (disulfide 2-12; SMILES CC[C@H](C)[C@H](NC(C)=O)C(=O)N[C@H]1CSSC[C@@H](C(=O)N[C@H](C(N)=O)[C@@H](C)O)NC(=O)[C@H](CCCNC(=N)N)NC(=O)[C@H](Cc2c[nH]cn2)NC(=O)[C@H](CO)NC(=O)CNC(=O)[C@H](Cc2c[nH]c3ccccc23)NC(=O)[C@H](CC(=O)O)NC(=O)[C@H](CCC(N)=O)NC(=O)[C@H](Cc2c[nH]c3ccccc23)NC(=O)[C@H]([C@@H](C)CC)NC1=O) [Compound 6] | 140 | < 250 |  |
| Ac-ICIWQDWGEHRCTGAES-NH2 (disulfide 2-12; SMILES CC[C@H](C)[C@H](NC(C)=O)C(=O)N[C@H]1CSSC[C@@H](C(=O)N[C@H](C(=O)NCC(=O)N[C@@H](C)C(=O)N[C@@H](CCC(=O)O)C(=O)N[C@@H](CO)C(N)=O)[C@@H](C)O)NC(=O)[C@H](CCCNC(=N)N)NC(=O)[C@H](Cc2c[nH]cn2)NC(=O)[C@H](CCC(=O)O)NC(=O)CNC(=O)[C@H](Cc2c[nH]c3ccccc23)NC(=O)[C@H](CC(=O)O)NC(=O)[C@H](CCC(N)=O)NC(=O)[C@H](Cc2c[nH]c3ccccc23)NC(=O)[C@H]([C@@H](C)CC)NC1=O) [Compound 15] | 47 | < 100 |  |
| Ac-ICVWQDWGSHRCT-NH2 (disulfide 2-12; SMILES CC[C@H](C)[C@H](NC(C)=O)C(=O)N[C@H]1CSSC[C@@H](C(=O)N[C@H](C(N)=O)[C@@H](C)O)NC(=O)[C@H](CCCNC(=N)N)NC(=O)[C@H](Cc2c[nH]cn2)NC(=O)[C@H](CO)NC(=O)CNC(=O)[C@H](Cc2c[nH]c3ccccc23)NC(=O)[C@H](CC(=O)O)NC(=O)[C@H](CCC(N)=O)NC(=O)[C@H](Cc2c[nH]c3ccccc23)NC(=O)[C@H](C(C)C)NC1=O) [Compound B] | 360 |  |  |
| Ac-ICVWQDWGEHRCTEGE-NH2 (disulfide 2-12; SMILES CC[C@H](C)[C@H](NC(C)=O)C(=O)N[C@H]1CSSC[C@@H](C(=O)N[C@H](C(=O)N[C@@H](CCC(=O)O)C(=O)NCC(=O)N[C@@H](CCC(=O)O)C(N)=O)[C@@H](C)O)NC(=O)[C@H](CCCNC(=N)N)NC(=O)[C@H](Cc2c[nH]cn2)NC(=O)[C@H](CCC(=O)O)NC(=O)CNC(=O)[C@H](Cc2c[nH]c3ccccc23)NC(=O)[C@H](CC(=O)O)NC(=O)[C@H](CCC(N)=O)NC(=O)[C@H](Cc2c[nH]c3ccccc23)NC(=O)[C@H](C(C)C)NC1=O) [Compound J] | 240 |  |  |
| Ac-ESSAICIWQDWGEHRCT-NH2 (disulfide 6-16; SMILES CC[C@H](C)[C@H](NC(=O)[C@H](C)NC(=O)[C@H](CO)NC(=O)[C@H](CO)NC(=O)[C@H](CCC(=O)O)NC(C)=O)C(=O)N[C@H]1CSSC[C@@H](C(=O)N[C@H](C(N)=O)[C@@H](C)O)NC(=O)[C@H](CCCNC(=N)N)NC(=O)[C@H](Cc2c[nH]cn2)NC(=O)[C@H](CCC(=O)O)NC(=O)CNC(=O)[C@H](Cc2c[nH]c3ccccc23)NC(=O)[C@H](CC(=O)O)NC(=O)[C@H](CCC(N)=O)NC(=O)[C@H](Cc2c[nH]c3ccccc23)NC(=O)[C@H]([C@@H](C)CC)NC1=O) [Compound 3] | 69 | < 100 |  |
| Ac-ICIWQDWGAHSCT-NH2 (disulfide 2-12; SMILES CC[C@H](C)[C@H](NC(C)=O)C(=O)N[C@H]1CSSC[C@@H](C(=O)N[C@H](C(N)=O)[C@@H](C)O)NC(=O)[C@H](CO)NC(=O)[C@H](Cc2c[nH]cn2)NC(=O)[C@H](C)NC(=O)CNC(=O)[C@H](Cc2c[nH]c3ccccc23)NC(=O)[C@H](CC(=O)O)NC(=O)[C@H](CCC(N)=O)NC(=O)[C@H](Cc2c[nH]c3ccccc23)NC(=O)[C@H]([C@@H](C)CC)NC1=O) [Compound 19] | 140 | < 250 |  |
